In publication PMC9482650, “Quantitative fragmentomics allow affinity mapping of interactomes” (Nature Communications, 2022):

T1: APBA2_2, Q99767
T1 sequence (Q99767 654-744, limits assumed, looked up): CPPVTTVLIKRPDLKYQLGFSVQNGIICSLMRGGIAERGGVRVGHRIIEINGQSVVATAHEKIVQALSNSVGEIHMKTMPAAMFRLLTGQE

T2: APBA1_2, Q02410
T2 sequence (Q02410 742-832, limits assumed, looked up): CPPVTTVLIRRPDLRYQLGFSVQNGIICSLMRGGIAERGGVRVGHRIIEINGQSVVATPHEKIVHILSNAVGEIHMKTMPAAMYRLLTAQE

T3: APBA3_1, O96018
T3 sequence (O96018 389-490, limits assumed, looked up): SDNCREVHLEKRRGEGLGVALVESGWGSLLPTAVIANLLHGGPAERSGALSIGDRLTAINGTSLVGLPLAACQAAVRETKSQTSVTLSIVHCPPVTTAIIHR

T4: SIPA1L2, Q9P2F8
T4 sequence (Q9P2F8 945-1036, limits assumed, looked up): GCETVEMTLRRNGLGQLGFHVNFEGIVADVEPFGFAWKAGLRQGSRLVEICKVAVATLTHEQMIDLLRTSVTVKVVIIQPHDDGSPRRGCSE

T5: ARHGAP21, Q5T5U3
T5 sequence (Q5T5U3 45-169, limits assumed, looked up): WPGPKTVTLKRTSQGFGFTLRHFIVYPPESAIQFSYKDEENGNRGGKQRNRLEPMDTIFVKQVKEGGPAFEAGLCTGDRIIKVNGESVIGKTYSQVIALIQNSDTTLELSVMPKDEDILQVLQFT

T6: SYNJ2BP, P57105
T6 sequence (P57105 8-110, limits assumed, looked up): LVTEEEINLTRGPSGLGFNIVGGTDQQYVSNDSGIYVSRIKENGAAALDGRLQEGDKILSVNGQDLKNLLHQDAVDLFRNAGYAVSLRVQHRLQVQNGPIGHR

T7: FRMPD1, Q5SYB0
T7 sequence (Q5SYB0 52-145, limits assumed, looked up): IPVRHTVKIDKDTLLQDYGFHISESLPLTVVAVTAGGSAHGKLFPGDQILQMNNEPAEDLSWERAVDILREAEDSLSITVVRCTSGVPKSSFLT

T8: LIN7B, Q9HAP6
T8 sequence (Q9HAP6 88-185, limits assumed, looked up): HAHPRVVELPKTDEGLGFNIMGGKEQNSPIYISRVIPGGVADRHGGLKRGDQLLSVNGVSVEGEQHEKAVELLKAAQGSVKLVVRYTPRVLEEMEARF

T9: PDZD7_3, Q9H5P4
T9 sequence (Q9H5P4 857-944, limits assumed, looked up): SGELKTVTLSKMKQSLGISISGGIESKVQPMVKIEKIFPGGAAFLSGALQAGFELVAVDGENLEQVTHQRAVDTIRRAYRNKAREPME

T10: MPDZ_10, O75970
T10 sequence (O75970 1624-1722, limits assumed, looked up): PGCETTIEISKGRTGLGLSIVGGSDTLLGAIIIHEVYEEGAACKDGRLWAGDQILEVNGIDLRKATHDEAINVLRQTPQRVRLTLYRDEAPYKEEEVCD

T11: HTRA4, P83105
T11 sequence (P83105 378-476, limits assumed, looked up): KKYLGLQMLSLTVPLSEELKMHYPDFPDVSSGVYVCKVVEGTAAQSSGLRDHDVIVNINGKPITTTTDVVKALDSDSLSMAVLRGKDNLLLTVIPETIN

T12: PTPN13_1, Q12923
T12 sequence (Q12923 1088-1188, limits assumed, looked up): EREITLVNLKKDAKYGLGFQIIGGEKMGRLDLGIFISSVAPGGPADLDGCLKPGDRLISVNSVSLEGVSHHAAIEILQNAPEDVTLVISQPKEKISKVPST

T13: NHERF3_4, Q5T2W1
T13 sequence (Q5T2W1 373-468, limits assumed, looked up): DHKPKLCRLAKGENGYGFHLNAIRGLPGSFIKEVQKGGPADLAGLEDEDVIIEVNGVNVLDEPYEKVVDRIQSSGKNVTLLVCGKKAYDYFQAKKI


Legend:
Assay in all cases: holdup assay
Parameters in all cases: key: below the threshold = too weak to quantify, mostly under pKd 3.1 to 4
Conditions in all cases: plain residues with an end cap or a label only (N-terminal biotin on a linker: ado-ado)
[1] = biological target: T1, APBA2_2, Q99767
[2] = biological target: T2, APBA1_2, Q02410
[3] = biological target: GRASP, Q7Z6J2
Sequence of GRASP, Q7Z6J2 (Q7Z6J2 96-193): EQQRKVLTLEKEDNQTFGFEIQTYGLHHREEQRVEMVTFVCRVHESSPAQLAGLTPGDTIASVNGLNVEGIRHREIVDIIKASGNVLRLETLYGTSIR

[4] = biological target: Inadl_2, Q8NI35
Sequence of Inadl_2, Q8NI35 (Q8NI35 238-335): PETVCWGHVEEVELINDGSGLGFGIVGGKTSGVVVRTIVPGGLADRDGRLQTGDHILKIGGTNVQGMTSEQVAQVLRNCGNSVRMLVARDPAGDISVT

[5] = biological target: T3, APBA3_1, O96018
[6] = biological target: T4, SIPA1L2, Q9P2F8
[7] = biological target: DLG1_1, Q12959
[8] = biological target: T5, ARHGAP21, Q5T5U3
[9] = biological target: T6, SYNJ2BP, P57105
[10] = biological target: T7, FRMPD1, Q5SYB0
[11] = biological target: PDLIM1, O00151
Sequence of PDLIM1, O00151 (O00151 1-87): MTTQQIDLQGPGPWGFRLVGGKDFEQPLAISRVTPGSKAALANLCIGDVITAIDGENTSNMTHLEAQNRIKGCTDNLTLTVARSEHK

[12] = biological target: T8, LIN7B, Q9HAP6
[13] = biological target: T9, PDZD7_3, Q9H5P4
[14] = biological target: GIPC2, Q8TF65
Sequence of GIPC2, Q8TF65 (Q8TF65 112-203): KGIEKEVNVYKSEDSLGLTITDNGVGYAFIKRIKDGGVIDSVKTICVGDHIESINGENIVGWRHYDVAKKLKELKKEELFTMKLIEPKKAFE

[15] = biological target: TJP2_1, Q9UDY2
Sequence of TJP2_1, Q9UDY2 (Q9UDY2 24-128): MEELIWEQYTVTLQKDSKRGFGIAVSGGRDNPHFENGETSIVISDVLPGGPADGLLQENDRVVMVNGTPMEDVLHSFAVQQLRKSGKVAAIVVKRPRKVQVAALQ

[16] = biological target: T10, MPDZ_10, O75970
[17] = biological target: SNX27, Q96L92
[18] = biological target: T11, HTRA4, P83105
[19] = biological target: MAST2, Q6P0Q8
Sequence of MAST2, Q6P0Q8 (Q6P0Q8 1099-1202): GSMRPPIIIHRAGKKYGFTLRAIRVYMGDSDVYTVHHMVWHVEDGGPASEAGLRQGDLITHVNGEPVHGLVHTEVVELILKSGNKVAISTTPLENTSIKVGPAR

[20] = biological target: GRIP2_7, Q9C0E4
Sequence of GRIP2_7, Q9C0E4 (Q9C0E4 934-1023): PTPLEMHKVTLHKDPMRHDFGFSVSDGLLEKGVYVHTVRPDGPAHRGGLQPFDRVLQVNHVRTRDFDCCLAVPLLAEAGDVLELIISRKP

[21] = biological target: MAGI3_2, Q5TCQ9
Sequence of MAGI3_2, Q5TCQ9 (Q5TCQ9 398-503): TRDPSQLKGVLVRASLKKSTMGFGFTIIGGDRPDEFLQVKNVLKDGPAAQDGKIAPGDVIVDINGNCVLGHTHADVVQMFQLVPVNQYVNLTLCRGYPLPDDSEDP

[22] = biological target: GRIP2_3, Q9C0E4
Sequence of GRIP2_3, Q9C0E4 (Q9C0E4 238-339): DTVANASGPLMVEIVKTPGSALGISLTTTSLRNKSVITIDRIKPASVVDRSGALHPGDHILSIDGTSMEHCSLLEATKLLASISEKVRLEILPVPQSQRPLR

[23] = biological target: MAGI2_4, Q86UL8
Sequence of MAGI2_4, Q86UL8 (Q86UL8 772-865): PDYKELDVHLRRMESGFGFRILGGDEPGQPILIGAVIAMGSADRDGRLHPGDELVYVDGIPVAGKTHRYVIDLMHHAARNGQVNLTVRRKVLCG

[24] = biological target: T12, PTPN13_1, Q12923
[25] = biological target: T13, NHERF3_4, Q5T2W1

| Binder | pKd [1] | pKd [2] | pKd [3] | pKd [4] | pKd [5] | pKd [6] | pKd [7] | pKd [8] | pKd [9] | pKd [10] | pKd [11] | pKd [12] | pKd [13] | pKd [14] | pKd [15] | pKd [16] | pKd [17] | pKd [18] | pKd [19] | pKd [20] | other results |
| --- | --- | --- | --- | --- | --- | --- | --- | --- | --- | --- | --- | --- | --- | --- | --- | --- | --- | --- | --- | --- | --- |
| IQISELETNV [SLC1A7, O00341] | below the threshold | 3.83 | below the threshold | below the threshold | below the threshold | below the threshold | 4.34 | 3.98 | 4.56 | below the threshold | below the threshold | below the threshold | 4.85 | 3.86 | below the threshold | below the threshold | 5.65 | 3.9 | 5.61 | below the threshold | pKd [21]: 4.28; pKd [22]: below the threshold; pKd [23]: 3.56; pKd [24]: below the threshold; pKd [25]: below the threshold |
| PEKVSNTTVV [IGSF5, Q9NSI5] | below the threshold | 3.51 | 4.38 | below the threshold | below the threshold | below the threshold | 4.25 | below the threshold | 3.51 | below the threshold | below the threshold | 3.69 | 4.66 | below the threshold | below the threshold | below the threshold | 4.51 | below the threshold | 4.99 | below the threshold | pKd [21]: 4.44; pKd [22]: below the threshold; pKd [23]: 3.7; pKd [24]: below the threshold; pKd [25]: below the threshold |
| TNSKQGETTV [FZD1, Q9UP38] | below the threshold | 3.74 | below the threshold | below the threshold | below the threshold | below the threshold | 4.61 | 3.93 | 4.7 | below the threshold | below the threshold | below the threshold | 4.53 | 4.18 | below the threshold | below the threshold | 5.5 | 3.79 | 4.88 | below the threshold | pKd [21]: 4.94; pKd [22]: below the threshold; pKd [23]: 4.13; pKd [24]: below the threshold; pKd [25]: below the threshold |
| EAVTVESTSL [SLC22A11, Q9NSA0] | below the threshold | 3.86 | 5.36 | below the threshold | below the threshold | below the threshold | below the threshold | 4.12 | 4.15 | below the threshold | 3.71 | below the threshold | 4.8 | below the threshold | below the threshold | below the threshold | 5.41 | below the threshold | 5.9 | below the threshold | pKd [21]: below the threshold; pKd [22]: below the threshold; pKd [23]: below the threshold; pKd [24]: below the threshold; pKd [25]: 4.92 |

Second part, led by results:

| pKd [1] | pKd [2] | pKd [3] | pKd [4] | pKd [5] | pKd [6] | pKd [7] | pKd [8] | pKd [9] | pKd [10] | pKd [11] | pKd [12] | pKd [13] | pKd [14] | pKd [15] | pKd [16] | pKd [17] | pKd [18] | pKd [19] | pKd [20] | Binder | other results |
| --- | --- | --- | --- | --- | --- | --- | --- | --- | --- | --- | --- | --- | --- | --- | --- | --- | --- | --- | --- | --- | --- |
| below the threshold | below the threshold | 3.97 | below the threshold | below the threshold | below the threshold | below the threshold | 4 | below the threshold | below the threshold | below the threshold | below the threshold | 3.9 | 3.53 | below the threshold | 3.72 | below the threshold | below the threshold | 3.83 | below the threshold | QQGLLPHSSC [TYRO3, Q06418] | pKd [21]: below the threshold; pKd [22]: below the threshold; pKd [23]: below the threshold; pKd [24]: below the threshold; pKd [25]: below the threshold |
| below the threshold | below the threshold | below the threshold | below the threshold | below the threshold | below the threshold | 3.71 | 4.14 | 3.93 | below the threshold | below the threshold | below the threshold | below the threshold | below the threshold | below the threshold | below the threshold | 3.58 | below the threshold | 4.21 | below the threshold | KSRPENGTVC [TMEM178B, H3BS89] | pKd [21]: below the threshold; pKd [22]: below the threshold; pKd [23]: 3.74; pKd [24]: 3.59; pKd [25]: below the threshold |
